{"source": "patent US10736933B2", "about": "“Peptide-induced NK cell activation” (priority 2015, dated 2020)", "key": {"HLA-Cw*0102 [1]": {"target": "T1, HLA-Cw*0102 (Homo sapiens, UniProt P10321, A176E/A330V/A35S/A97T/C350S/D114A/D33F/L171W/L180R/L218V/M285V/M309V/M331V/P208H/Q277E/Q291P/R121W/R243W/R30K/S123C/S140Y/S297R/T329A/T363A/V272M/V319A)", "assay": "Peptide binding to HLA-Cw*0102 on L721.174 cells (cell surface MHC class I, flow cytometry)", "type": "cell-based", "settings": "increasing concentrations of peptide, overnight at 26° C.", "description": "The HLA-Cw*0102-positive cell line L721.174 was incubated with increasing concentrations of the LNPSVAATL (SEQ ID NO: 5) peptide or a control peptide VAPWNSLSL (SEQ ID NO: 11). Cells were stained for cell surface of MHC class I and analysed by flow cytometry. The mean fluorescence intensity of cell surface MHC Class I was plotted against the peptide concentration.\nThe HLA-Cw*0102 • positive cell line L721.174 was incubated with increasing concentrations of the peptides IVDLMCHATF (SEQ ID NO: 1); VIDAMCHATL (SEQ ID NO: 2); AANVMAASL (SEQ ID NO: 3); and FLSDVPVATL (SEQ ID NO: 4) or a control peptide […]. Cells were stained for cell surface of MHC class I and analysed by flow cytometry. The mean fluorescence intensity of cell surface MHC Class I was plotted against the peptide concentration.\n3×10^5 cells were used per condition. Following washing in PBS the cells were stained for cell surface of MHC class I and analysed by flow cytometry. The mean fluorescence intensity of cell surface MHC Class I was plotted against the peptide concentration.\nWith reference to FIG. 12, the HLA-Cw*0102-positive cell line L721.174 was incubated with increasing concentrations of the peptides IVDLMCHATF (SEQ ID NO: 1), VIDAMCHATL (SEQ ID NO: 2), AANVMAASL (SEQ ID NO: 3); and FLSDVPVATL (SEQ ID NO: 4) overnight at 26° C. 3×10^5 cells were used per condition. Following washing in PBS the cells were stained for cell surface of MHC class I and analysed by flow cytometry. The mean fluorescence intensity of cell surface MHC Class I was plotted against the peptide concentration."}, "KIR2DS2": {"target": "T2, KIR2DS2 (Homo sapiens, UniProt P43631)", "T2 construct": "made in house", "T2 sequence (P43631 22-245 limits assumed)": "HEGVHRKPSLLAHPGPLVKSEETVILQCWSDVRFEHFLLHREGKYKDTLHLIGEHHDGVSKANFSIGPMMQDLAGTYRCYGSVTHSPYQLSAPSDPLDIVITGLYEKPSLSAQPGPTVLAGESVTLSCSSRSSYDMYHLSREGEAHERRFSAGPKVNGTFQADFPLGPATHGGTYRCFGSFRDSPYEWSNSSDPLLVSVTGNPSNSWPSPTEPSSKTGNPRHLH", "assay": "KIR2DS2 tetramer (KIR2DS2-PE) staining of peptide-loaded L721.174 cells", "type": "binding", "settings": "L721.174 cells incubated overnight at 26° C. with peptide, flow cytometry", "description": "A. The KIR2DS2 protein was expressed with a biotinylation C-terminal tag. Following biotinylation with the BirA enzyme, the KIR2DS2 protein was incubated with streptavidin-phycoerythrin to form fluorescent KIR2DS2-tetramers (KIR2DS2-PE). L721.174 cells were then incubated with indicated peptides. Cells were then stained with KIR2DS2-PE and analysed by flow cytometry. Shown are histogram plots. The bold numbers represent the mean fluorescent staining intensity of the KIR2DS2-PE staining of the cells in the presence of peptide and the non-bold numbers the staining in the absence of peptide. B. Represents the mean and standard error fluorescent intensities of the experiment in “A” following replicate experiments.\nA. L721.174 cells were incubated with indicated peptides. Cells were then stained with KIR2DS2-PE (see FIG. 4) and analysed by flow cytometry. Shown are histogram plots. The bold numbers represent the mean fluorescent staining intensity of the KIR2DS2-PE staining of the cells in the presence of peptide and the non-bold numbers the staining in the absence of peptide. B. Represents the mean and standard error fluorescent intensities of the experiment in “A” following replicate experiments.\nFIG. 13—KIR2DS2 tetramer staining on 174 cells with and without peptides. Peptides tested include IVDLMCHATF (SEQ ID NO: 1); VIDAMCHATL (SEQ ID NO: 2); AANVMAASL (SEQ ID NO: 3); and FLSDVPVATL (SEQ ID NO: 4). A negative control peptide VAPWNSFAL (SEQ ID NO: 12) and positive control peptide LNPSVAATL (SEQ ID NO: 5) were included. The mean fluorescence intensity of the KIR2DS2 tetramer staining is shown in the right hand corner of the graph.\nWith reference to FIG. 4A, the KIR2DS2 protein was expressed as a recombinant protein with a biotinylation C-terminal tag. Following biotinylation with the BirA enzyme, the KIR2DS2 protein was incubated with streptavidin-phycoerythrin to form fluorescent KIR2DS2-tetramers (KIR2DS2-PE). 3×10^5 L721.174 cells were then incubated overnight at 26° C. with indicated peptides at a concentration of […]. Cells were then stained with KIR2DS2-PE and analysed by flow cytometry. Shown are histogram plots. The bold numbers represent the mean fluorescent staining intensity of the KIR2DS2-PE staining of the cells in the presence of peptide and the non-bold numbers the staining in the absence of peptide. With reference to FIG. 4B, panel B represents the mean and standard error fluorescent intensities of the experiment in “A” following replicate experiments.\nWith reference to FIG. 5A, 3×10^5 L721.174 cells were incubated overnight at 26° C. with indicated peptides at a concentration of 200 μM. Cells were then stained with KIR2DS2-PE (see FIG. 4) and analysed by flow cytometry. Shown are histogram plots. The bold numbers represent the mean fluorescent staining intensity of the KIR2DS2-PE staining of the cells in the presence of peptide and the non-bold numbers the staining in the absence of peptide. With reference to FIG. 5B, panel B represents the mean and standard error fluorescent intensities of the experiment in “A” following replicate experiments.\nWith reference to FIG. 13, the KIR2DS2 protein was expressed as a recombinant protein with a biotinylation C-terminal tag. Following biotinylation with the BirA enzyme, the KIR2DS2 protein was incubated with streptavidin-phycoerythrin to form fluorescent KIR2DS2-tetramers (KIR2DS2-PE). […] Cells were then stained with KIR2DS2-PE and analysed by flow cytometry. […]"}, "[2]": {"system": "NKL cell line transfected with KIR2DS2", "assay": "Vav1 phosphorylation (pVav1 Western blot) in NKL cells transfected with KIR2DS2", "type": "cell-based", "settings": "HLA-C*0304:ICP47:721.221 cells loaded with peptide; 5 minutes", "description": "A. L721.174 cells were incubated with indicated peptides. The cells were then incubated with the NK cell line transfected with KIR2DS2. The cells were lysed and the KIR2DS2 was then immunoprecipitated from the mixture using the GL183 antibody coupled to protein-G beads. The immune precipitate was analysed by Western blotting using a phosphotyrosine antibody. The membrane was then stripped and reprobed with an antibody to DAP12 the molecule that transduces a positive signal from KIR2DS2. Shown are the regions on the blots at the level of DAP12 (12-15 kDa). B. L721.174 cells were incubated with indicated peptides. The cells were then incubated with the NK cell line transfected with KIR2DS2 or transfected with KIR2DL2. The cells were lysed in 1% NP-40 and then analysed by Western blotting using antibodies to pVav1 and then following stripping of the membrane to Vav1. Shown are Western blots around the 98 kDa region, and below them the corresponding densitometries for 3 independent experiments.\nFIG. 7 1×10^6 L721.221-HLA-C*0304-ICP47 cells were incubated overnight at 26° C. with indicated peptides at a concentration of […]. The cells were then incubated with the NKL cell line transfected with KIR2DS2 or transfected with KIR2DL2 for 5 minutes. The cells were lysed in 1% NP-40 and then analysed by Western blotting using antibodies to pVav1 and then following stripping of the membrane to Vav1. Shown are Western blots around the 98 kDa region, and below them the corresponding densitometries for 2 independent experiments.\nFIG. 14—The Dengue virus peptide IVDLMCHATF (SEQ ID NO: 1) activates KIR2DS2 positive NK cells. 174 cells were incubated with the IVDLMCHATF (SEQ ID NO: 1) and then KIR2DS2-positive transfected NKL cells or KIR2DL2-positve transfected NKL cells. Activation of NK cells was assessed by western blotting for phosphorylated Vav1, and compared to total Vav1.\nWith reference to FIG. 6A, 1×10^6 L721.174 cells were incubated overnight at 26° C. with indicated peptides at a concentration of […]. The cells were then incubated with the NK cell line transfected with KIR2DS2 for 5 minutes. The cells were lysed in 1% digitonin buffer and the KIR2DS2 was then immunoprecipitated from the mixture using the GL183 antibody coupled to protein-G beads. The immune precipitate was analysed by Western blotting using a phosphotyrosine antibody. […] The cells were lysed in 1% NP-40 and then analysed by Western blotting using antibodies to pVav1 and then following stripping of the membrane to Vav1. […]\nWith reference to FIG. 7, 1×10^6 HLA-C*0304:ICP47:721.221 cells were incubated overnight at 26° C. with indicated peptides at a concentration of […]. […] The cells were lysed in 1% NP-40 and then analysed by Western blotting using antibodies to pVav1 and then following stripping of the membrane to Vav1. […]"}, "[3]": {"system": "KIR2DS2-positive NK cells", "assay": "CD107a degranulation of NK cells from KIR2DS2-positive donors cultured with peptide-loaded L721.174 cells", "type": "cell-based", "settings": "KIR2DS2-positive donor, CH-L antibody positive NK cells, four hours, compared to no peptide", "description": "(§1) A. cells were incubated in the presence or absence of peptides, and then cultured with NK cells from either a KIR2DS2-positive or KIR2DS2-negative donor. The level of CD107a (LAMP) expression was measured on NK cells positive for the CH-L antibody. This antibody binds to KIR2DS2, KIR2DL2 and KIR2DL3. B. Summary data from 5 KIR2DS2-positive and 6 KIR2DS2 • negative donors tested as per panel A of FIG. 2. To compare the different donors the data are normalized to 100% for the no peptide condition.\n(§2) With reference to FIG. 2A, 3×10^5 L721.174 cells were incubated at 26° C. overnight in the presence or absence of peptides, and then cultured for four hours with NK cells from either a KIR2DS2-positive or KIR2DS2-negative donor. The level of CD107a (LAMP) expression was measured on NK cells positive for the CH-L antibody. This antibody binds to KIR2DS2, KIR2DL2 and KIR2DL3. […] With reference to FIG. 2B, summary data from 5 KIR2DS2-positive and 6 KIR2DS2 • negative donors were tested as per panel A of FIG. 2. To compare the different donors the data are normalized to 100% for the no peptide condition."}, "[4]": {"system": "KIR2DS2-negative donor NK cells", "assay": "CD107a degranulation of NK cells from KIR2DS2-negative donors cultured with peptide-loaded L721.174 cells", "type": "cell-based", "settings": "CH-L antibody positive NK cells, four hours, compared to no peptide", "description": "as §1, §2"}, "HLA-Cw*0102 [5]": {"target": "T1, HLA-Cw*0102", "settings": "control peptide, known binder; cited from earlier work"}}}
{"sequence": "AANVMAASL", "values": [{"measurement": "binding to HLA-Cw*0102 (mean fluorescence intensity of cell surface MHC Class I)", "setting": "HLA-Cw*0102 [1]", "result": "bind HLA-Cw*0102"}, {"measurement": "KIR2DS2-PE tetramer binding to HLA-C*0102 and peptide", "setting": "KIR2DS2", "result": "KIR2DS2 BINDS"}]}
{"sequence": "FLSDVPVATL", "values": [{"measurement": "binding to HLA-Cw*0102 (mean fluorescence intensity of cell surface MHC Class I)", "setting": "HLA-Cw*0102 [1]", "result": "bind HLA-Cw*0102"}, {"measurement": "KIR2DS2-PE tetramer binding to HLA-C*0102 and peptide", "setting": "KIR2DS2", "result": "KIR2DS2 BINDS"}]}
{"sequence": "GAVPDLATL", "values": [{"measurement": "activation of KIR2DS2 (pVav1 vs Vav1)", "setting": "[2]", "result": "KIR2DS2 IS ACTIVATED"}]}
{"sequence": "GAVPDLAWL", "values": [{"measurement": "activation of KIR2DS2 (pVav1 vs Vav1)", "setting": "[2]", "result": "KIR2DS2 IS ACTIVATED"}]}
{"sequence": "VAPWNSFAL [VAP-FA, negative control peptide, reference compound]", "values": [{"measurement": "level of CD107a (LAMP) degranulation", "setting": "[3]", "result": "lower levels of degranulation"}, {"measurement": "level of CD107a (LAMP) degranulation", "setting": "[4]", "result": "lower levels of degranulation"}]}
{"sequence": "VAPWNSLSL", "values": [{"measurement": "binding to HLA-Cw*0102", "setting": "HLA-Cw*0102 [5]", "result": "known to bind HLA-Cw*0102"}]}
{"sequence": "VIDAMCHATL", "values": [{"measurement": "binding to HLA-Cw*0102 (mean fluorescence intensity of cell surface MHC Class I)", "setting": "HLA-Cw*0102 [1]", "result": "bind HLA-Cw*0102"}, {"measurement": "KIR2DS2-PE tetramer binding to HLA-C*0102 and peptide", "setting": "KIR2DS2", "result": "KIR2DS2 BINDS"}]}
